Test results taken from article PMC9410875, “FOXL2 and FOXA1 cooperatively assemble on the TP53 promoter in alternative dimer configurations”.

What was measured:
FOXA1-DBD = biological target: T1, FOXA1-DBD (UniProt P55317 168-264); assay: X-ray crystallography; 2:1, 2.1 A; Mg2+ at dimer interface; ITC: 20 mM HEPES pH 7.5, 150 mM NaCl, 10 mM MgCl2, 298 K. EMSA: 2.5 uM DNA, 20 mM HEPES pH 7.5, 50 mM KCl, 10 mM MgCl2, 1 mM DTT, 10% glycerol, on ice 30 min; FOXA1 EMSA: 20 mM Tris-HCl pH 8.0, 0.1 mg/ml BSA, 50 uM ZnCl2, 100 mM KCl, 2 mM beta-mercaptoethanol, 10% glycerol (50 mM EDTA for Mg2+ depletion); settings: protein: recombinant; tags: GST tag cleaved by TEV; chain copies: 2; blunt
T1 sequence: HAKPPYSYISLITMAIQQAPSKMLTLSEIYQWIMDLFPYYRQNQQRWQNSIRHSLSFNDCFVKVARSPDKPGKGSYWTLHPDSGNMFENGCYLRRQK

FOXL2-DBD [1] = biological target: T2, FOXL2-DBD (Homo sapiens, UniProt P58012 52-148); assay: ITC; 2:1 stoichiometry, biphasic; Kd values not in the text; ITC: 20 mM HEPES pH 7.5, 150 mM NaCl, 10 mM MgCl2, 298 K. EMSA: 2.5 uM DNA, 20 mM HEPES pH 7.5, 50 mM KCl, 10 mM MgCl2, 1 mM DTT, 10% glycerol, on ice 30 min; FOXA1 EMSA: 20 mM Tris-HCl pH 8.0, 0.1 mg/ml BSA, 50 uM ZnCl2, 100 mM KCl, 2 mM beta-mercaptoethanol, 10% glycerol (50 mM EDTA for Mg2+ depletion); settings: protein: recombinant; tags: GST tag cleaved by TEV; blunt
T2 sequence: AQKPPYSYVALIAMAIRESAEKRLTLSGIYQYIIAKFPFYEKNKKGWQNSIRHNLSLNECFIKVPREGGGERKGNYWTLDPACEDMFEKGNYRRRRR

FOXL2 full-length = biological target: T3, FOXL2 full-length (UniProt P58012 1-376); assay: EMSA; 1 or 10 ug protein; ITC: 20 mM HEPES pH 7.5, 150 mM NaCl, 10 mM MgCl2, 298 K. EMSA: 2.5 uM DNA, 20 mM HEPES pH 7.5, 50 mM KCl, 10 mM MgCl2, 1 mM DTT, 10% glycerol, on ice 30 min; FOXA1 EMSA: 20 mM Tris-HCl pH 8.0, 0.1 mg/ml BSA, 50 uM ZnCl2, 100 mM KCl, 2 mM beta-mercaptoethanol, 10% glycerol (50 mM EDTA for Mg2+ depletion); settings: protein: recombinant; label: 32P
T3 sequence: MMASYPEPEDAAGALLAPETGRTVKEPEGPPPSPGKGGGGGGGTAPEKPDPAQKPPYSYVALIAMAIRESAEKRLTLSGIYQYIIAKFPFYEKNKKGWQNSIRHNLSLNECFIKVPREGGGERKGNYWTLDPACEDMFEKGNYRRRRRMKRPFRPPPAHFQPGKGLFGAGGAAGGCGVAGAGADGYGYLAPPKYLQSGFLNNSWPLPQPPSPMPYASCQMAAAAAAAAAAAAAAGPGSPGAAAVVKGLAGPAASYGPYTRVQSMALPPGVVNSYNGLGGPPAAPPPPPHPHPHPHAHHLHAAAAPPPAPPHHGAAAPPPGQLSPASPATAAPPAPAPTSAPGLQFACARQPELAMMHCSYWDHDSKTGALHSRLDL

FOXL2-DBD [2] = biological target: T2, FOXL2-DBD; assay: ITC; 1:1 one-site curve; biphasic pattern lost; ITC: 20 mM HEPES pH 7.5, 150 mM NaCl, 10 mM MgCl2, 298 K. EMSA: 2.5 uM DNA, 20 mM HEPES pH 7.5, 50 mM KCl, 10 mM MgCl2, 1 mM DTT, 10% glycerol, on ice 30 min; FOXA1 EMSA: 20 mM Tris-HCl pH 8.0, 0.1 mg/ml BSA, 50 uM ZnCl2, 100 mM KCl, 2 mM beta-mercaptoethanol, 10% glycerol (50 mM EDTA for Mg2+ depletion); settings: protein: recombinant; tags: GST tag cleaved by TEV; blunt
FOXL2-DBD [3] = biological target: T2, FOXL2-DBD; assay: ITC; 1:1 stoichiometry; 10 mM MgCl2, 298 K; ITC: 20 mM HEPES pH 7.5, 150 mM NaCl, 10 mM MgCl2, 298 K. EMSA: 2.5 uM DNA, 20 mM HEPES pH 7.5, 50 mM KCl, 10 mM MgCl2, 1 mM DTT, 10% glycerol, on ice 30 min; FOXA1 EMSA: 20 mM Tris-HCl pH 8.0, 0.1 mg/ml BSA, 50 uM ZnCl2, 100 mM KCl, 2 mM beta-mercaptoethanol, 10% glycerol (50 mM EDTA for Mg2+ depletion); settings: protein: recombinant; tags: GST tag cleaved by TEV; blunt
FOXA1-DBD S177A = biological target: T4, FOXA1-DBD S177A (UniProt P55317 168-264, S177A); assay: EMSA; little change vs wild type; ITC: 20 mM HEPES pH 7.5, 150 mM NaCl, 10 mM MgCl2, 298 K. EMSA: 2.5 uM DNA, 20 mM HEPES pH 7.5, 50 mM KCl, 10 mM MgCl2, 1 mM DTT, 10% glycerol, on ice 30 min; FOXA1 EMSA: 20 mM Tris-HCl pH 8.0, 0.1 mg/ml BSA, 50 uM ZnCl2, 100 mM KCl, 2 mM beta-mercaptoethanol, 10% glycerol (50 mM EDTA for Mg2+ depletion); settings: protein: recombinant; label: 5' Cy3 on strand 1 (legends say Cy5); blunt
T4 sequence: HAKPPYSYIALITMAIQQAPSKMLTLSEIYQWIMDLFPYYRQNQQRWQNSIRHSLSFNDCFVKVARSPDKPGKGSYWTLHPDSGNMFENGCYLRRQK

B1: p53-DNA 16 bp (dsDNA)
DNA 1: AAATATTTATTATCGA
DNA 2: TCGATAATAAATATTT
FOXA1-DBD
  binding result: binds
FOXL2-DBD [1]
  binding result: binds

B2: TP53-DNA, 32P probe (dsDNA)
DNA 1: CCCTCATTCAAAAAATATTTATTATCGAGCTCTTACT
DNA 2: AGTAAGAGCTCGATAATAAATATTTTTTGAATGAGGG
FOXL2 full-length
  binding result: binds

B3: p53 mut2 16 bp (ITC) (dsDNA)
DNA 1: AAATATTTATCCCTCA
DNA 2: TGAGGGATAAATATTT
FOXL2-DBD [2]
  binding result: binds

B4: DBE2 DNA 16 bp (dsDNA)
DNA 1: CAAAATGTAAACAAGT
DNA 2: ACTTGTTTACATTTTG
FOXL2-DBD [3]
  Kd: 790 ± 100 nM

B5: p53-DNA 26 bp (S0) (dsDNA)
DNA 1: TCAAAAAATATTTATTATCGAGCTCT
DNA 2: AGAGCTCGATAATAAATATTTTTTGA
FOXA1-DBD S177A
  binding result: binds
